Data reported in patent publication US20090044296A1 (CORNELL RESEARCH FOUNDATION, published 2009).

B1: AtHIPM, 52 amino acid fragment orthologous to the original HIPM prey clone (other)
chain: NDKWSMRILWGCAIGSAIGLYMVAVERQTQNRARAMAESLRAAESQGDGDNV
B2: HIPM (HrpN-interacting protein from Malus), original yeast two-hybrid clone with the 53 C-terminal amino acids (other)
chain: GDRWSMRILWACAIGSAVSLYMVAVDRQLKNRERALAEELKAMEAESGSGEIV
notes: Residues 8-60 are worked out from that; also called pB42AD-HIPM; pAD-HIPM
B3: HrpN (harpin) of Erwinia amylovora, full-length, yeast two-hybrid construct (other)
chain: MSLNTSGLGASTMQISIGGAGGNNGLLGTSRQNAGLGGNSALGLGGGNQNDTVNQLAGLLTGMMMMMSMMGGGGLMGGGLGGGLGNGLGGSGGLGEGLSNALNDMLGGSLNTLGSKGGNNTTSTTNSPLDQALGINSTSQNDDSTSGTDSTSDSSDPMQQLLKMFSEIMQSLFGDGQDGTQGSSSGGKQPTEGEQNAYKKGVTDALSGLMGNGLSQLLGNGGLGGGQGGNAGTGLDGSSLGGKGLQNLSGPVDYQQLGNAVGTGIGMKAGIQALNDIGTHSDSSTRSFVNKGDRAMAKEIGQFMDQYPEVFGKPQYQKGPGQEVKTDDKSWAKALSKPDDDGMTPASMEQFNKAKGMIKSAMAGDTGNGNLQARGAGGSSLGIDAMMAGDAINNMALGKLGAA
notes: also called pGilda-hrpN; full-length HrpN protein

Legend:
[1] = target: AtHIPM, endogenous protein in Arabidopsis thaliana ecotype Columbia plants (Arabidopsis thaliana); assay: cell-based or functional assay
[2] = target: the molecule itself; assay: yeast two-hybrid (LexA system), self-interaction
[3] = target: B3; assay: yeast two-hybrid (LexA system), growth with or without leucine
[4] = target: B3; assay: yeast two-hybrid (LexA system), HrpN bait, apple cDNA prey clone
[5] = target: T1, HrpN-4, truncated derivative of HrpN spanning residues 1-198 (Erwinia amylovora, UniProt Q01099 1-198); assay: yeast two-hybrid, HrpN deletions in pGilda against pB42AD-HIPM
T1 construct: Cloned in pGilda (LexA fusion, bait)
T1 sequence (looked up): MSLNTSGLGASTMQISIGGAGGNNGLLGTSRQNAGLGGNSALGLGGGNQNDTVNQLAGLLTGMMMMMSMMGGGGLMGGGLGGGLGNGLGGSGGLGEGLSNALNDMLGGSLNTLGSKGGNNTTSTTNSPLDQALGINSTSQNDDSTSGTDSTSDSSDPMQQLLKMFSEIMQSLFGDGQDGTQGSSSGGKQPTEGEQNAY
Excerpt: Transformants were selected on minimal synthetic dropout (“SD”) medium containing glucose but lacking histidine and tryptophan (“SD/glu-HT”). To identify yeast transformants with positive interaction, the transformants were screened on SD medium with galactose but without histidine, tryptophan, and leucine (“SD/gal-HTL”). Yeast colonies with positive interaction grow in this medium. A yeast strain transformed with p53 as bait and large antigen T as prey was used as a positive control. […] Yeast cell cultures were grown overnight in the SD/glu-HT medium. The cells then were washed once with water and resuspended in water. 10 μl of yeast cell suspension (OD₆₀₀=0.2) was dropped on SD/gal-HTL plates. As a control, the same yeast suspension was dropped on SD/gal-HT plates with leucine.

[6] = target: T2, LexA-lamin (UniProt P02545 66-230); assay: yeast two-hybrid (LexA system), growth without leucine
T2 construct: not shown: LexA part of the fusion
T2 sequence: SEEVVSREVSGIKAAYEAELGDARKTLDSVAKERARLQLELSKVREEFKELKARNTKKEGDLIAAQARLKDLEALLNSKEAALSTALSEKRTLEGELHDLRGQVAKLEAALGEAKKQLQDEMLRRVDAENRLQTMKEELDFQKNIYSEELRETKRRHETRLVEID

Molecule: HrpN as applied to plants (Messenger, Eden Bioscience; 15 ug/ml of HrpN) (from UniProt Q01099 1-403)
- decrease in root growth of the AtHIPM T-DNA mutant line (few AtHIPM transcripts) after treatment with 15 ug/ml of HrpN [1]: 6%
- root growth of the wild-type 10 days after treatment with 15 ug/ml of HrpN [1]: 9%
- top growth of the wild-type plants one week after spraying with 15 ug/ml of HrpN [1]: 10%

Molecule: B1
- binding result [2]: no binding
- binding result [3]: binds

Molecule: B2
- binding result [2]: no binding
- binding result [4]: binds
- binding result [5]: binds
- binding result [6]: no binding

Molecule: B3
- binding result [2]: binds
